Drawing on patent publication US20030129189A1, “Tumor necrosis factor-gamma” (priority 1994, published 2003), this text covers binding result and tumor growth for 4 molecules.

B2: full length TNF-gamma-beta on the cell surface (HEK293F stable transfectants; transfected cells) (ligand)
chain: MAEDLGLSFGETASVEMLPEHGSCRPKARSSSARWALTCCLVLLPFLAGLTTYLLVSQLRAQGEACVQFQALKGQEFAPSHQQVYAPLRADGDKPRAHLTVVRQTPTQHFKNQFPALHWEHELGLAFTKNRMNYTNKFLLIPESGDYFIYSQVTFRGMTSECSEIRQAGRPNKPDSITVVITKVTDSYPEPTQLLMGTKSVCEVGSNWFQPIYLGAMFSLQEGDKLMVNVSDISLVDYTKEDKTFFGAFLL
notes: also called TNF-gamma-beta expressing cells

The target of assay [1] is T1, recombinant, untagged TNF-gamma-beta protein (aa 72-251) (human, UniProt O95150 72-251).
T1 construct: they are put here; also called TL1β; non-tagged TNF-gamma-beta
T1 sequence: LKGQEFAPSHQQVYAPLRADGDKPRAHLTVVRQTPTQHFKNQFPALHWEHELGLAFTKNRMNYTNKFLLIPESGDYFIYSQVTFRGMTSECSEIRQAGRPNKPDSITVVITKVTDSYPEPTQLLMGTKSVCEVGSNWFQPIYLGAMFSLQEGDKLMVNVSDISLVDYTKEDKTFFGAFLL
The experiment in a line: BIAcore 3000, TNFR-Fc immobilised on CM5 chip, TNF-gamma-beta in flow. How it is done: TNFR-Fc were covalently immobilized to the BIAcore sensor chip (CM5 chip) via amine groups using N-ethyl-N′-(dimethylaminopropyl) carbodiimide/N-hydroxysuccinimide chemistry. […] The amount of bound protein was determined during washing of the flow cell with HBS buffer (10 mM HEPES, pH 7.4, 150 mM NaCl, 3.4 mM EDTA, 0.005% Surfactant P20). The flow cell surface was regenerated by displacing bound protein by washing with 20 microliters of 10 mM glycine-HCl, pH 2.3. For kinetic analysis, the on and off rates were determined using the kinetic evaluation program in BIAevaluation 3 software using a 1:1 binding model and the global analysis method.
A general note: Surface plasmon resonance follows binding to a sensor surface in real time, without labels.

Assay [2] addresses T2, Fc-fusion form of the extracellular domain of DR6 (UniProt O75509 42-349, limits assumed).
T2 construct: extracellular domain; not shown: Fc part of the fusion
T2 sequence (looked up): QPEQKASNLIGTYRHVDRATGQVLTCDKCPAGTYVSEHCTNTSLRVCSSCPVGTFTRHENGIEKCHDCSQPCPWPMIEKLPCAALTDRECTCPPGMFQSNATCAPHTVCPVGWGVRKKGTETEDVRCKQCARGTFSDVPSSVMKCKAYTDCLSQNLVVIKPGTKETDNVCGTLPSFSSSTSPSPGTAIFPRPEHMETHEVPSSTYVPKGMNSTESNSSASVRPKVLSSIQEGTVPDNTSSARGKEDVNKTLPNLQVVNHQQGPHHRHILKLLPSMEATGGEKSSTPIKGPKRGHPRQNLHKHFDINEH
Description: flow cytometry on HEK293F cells expressing full length TNF-gamma-beta. How it is done: (§1) TR6 has been previously described as a decoy receptor (Pitti et al., Nature 396:699-703 (1998); Yu et al., J. Biol. Chem. 274:13733-6 (1999)) capable of competing with Fas and HveA for binding of FasL and LIGHT, respectively.
(§2) One million cells, in 0.1 ml of FACS buffer (PBS, 0.1% BSA, 0.1% NaN₃), were incubated with 0.1-1 microgram of protein or antibody at RT for 15 min. The cells were washed with 3 ml of FACS buffer, reacted with biotinylated primary antibody, and stained with PE-conjugated secondary antibody at RT for 15 min. Cells were then washed again, resuspended in 0.5 microgram/ml of propidium iodide, and live cells were gated and analyzed on a FACScan using the CellQuest software (BD Biosciences).
(In general: In flow cytometry, cells or beads pass a laser one at a time.)

For assay [3], the target named is T3, Fc-fusion form of the extracellular domain of OPG (UniProt O00300 22-401, limits assumed).
T3 construct: extracellular domain; not shown: Fc part of the fusion
T3 sequence (looked up): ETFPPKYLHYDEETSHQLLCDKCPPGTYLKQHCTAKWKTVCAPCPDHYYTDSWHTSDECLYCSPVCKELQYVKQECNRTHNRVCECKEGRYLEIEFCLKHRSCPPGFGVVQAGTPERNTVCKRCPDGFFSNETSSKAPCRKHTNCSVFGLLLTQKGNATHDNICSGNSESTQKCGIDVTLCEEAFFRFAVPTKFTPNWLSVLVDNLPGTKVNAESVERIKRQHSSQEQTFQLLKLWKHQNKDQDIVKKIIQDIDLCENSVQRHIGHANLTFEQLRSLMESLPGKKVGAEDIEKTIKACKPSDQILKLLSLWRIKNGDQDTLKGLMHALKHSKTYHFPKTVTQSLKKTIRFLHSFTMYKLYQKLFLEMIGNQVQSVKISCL
The description is as above. How it is done:
as §1, §2

The target of the next assay is T4, non-tagged form of TR6 (UniProt O95407 30-300).
T4 construct: also called DcR3
T4 sequence (looked up): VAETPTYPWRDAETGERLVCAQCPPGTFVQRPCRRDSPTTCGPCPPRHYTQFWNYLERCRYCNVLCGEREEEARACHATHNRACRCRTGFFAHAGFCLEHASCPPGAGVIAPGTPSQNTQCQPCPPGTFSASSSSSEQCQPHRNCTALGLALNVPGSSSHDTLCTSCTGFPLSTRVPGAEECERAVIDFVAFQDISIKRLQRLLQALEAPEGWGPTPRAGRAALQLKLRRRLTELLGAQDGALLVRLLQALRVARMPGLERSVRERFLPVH
The experiment in a line: competition flow cytometry on HEK293F cells expressing TNF-gamma-beta; competitor of DR3-Fc. How it is done:
as §1, §2

In assay [4] the target is B2. Description: flow cytometry on HEK293F cells expressing full length TNF-gamma-beta. The protocol: as §1, §2
The target of assay [5] is T5, FLAG-tagged soluble TNF-gamma-beta (aa 72-251) (human, UniProt O95150 72-251).
T5 construct: also called FLAG-TL1β; FLAG-TNF-gamma-beta; not shown: The N-terminal FLAG tag (pFLAG-CMV-1 vector) and any vector linker
T5 sequence: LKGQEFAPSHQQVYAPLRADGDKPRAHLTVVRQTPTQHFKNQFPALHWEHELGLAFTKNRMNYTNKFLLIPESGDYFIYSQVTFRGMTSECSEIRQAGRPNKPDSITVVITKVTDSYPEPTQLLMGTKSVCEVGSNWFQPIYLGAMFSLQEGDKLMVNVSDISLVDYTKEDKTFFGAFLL
Description: co-immunoprecipitation with protein A-Sepharose, anti-Flag M2 blot. The source says: The beads were then precipitated and washed extensively with PBST buffer (PBS, 0.5% Triton X-100) before boiled in SDS-sample buffer. Proteins were resolved on 4-20% Tris-Glycine gels (NOVEX), transferred to nitrocellulose membranes, and blotted with anti-Flag M2 monoclonal antibody (1 microgram/ml, Sigma) andhorseradish peroxidase (HRP)-conjugated goat anti-mouse IgG antibody (0.5 microgram/ml).

Assay [6] relates to MC-38 murine colon cancer. Description: In vivo tumorigenicity assay, syngeneic MC-38 colon cancer. More on the design: species or system C57BL6/6 mice. The conditions noted are these: local production by transfected MCA 38 cells, 1×10^6 cells/mouse. The protocol: [The full-length TNF-gamma and extracellular domain of DR3 was cloned into pcDNA3 expression vector and transfected to MCA 38 cells, respectively. After selection and cloning, three clones from each constructs were picked for tumorigenicity study. MCA 38 cells (1×10^6 cells/mouse) expressing TNF-gamma or DR3 extracellular domain were injected into C57BL6/6 mice. The tumor size was assessed by measuring perpendicular diameters with a caliper and calculated by multiplying the measurements of diameters in two dimensions. Data are represented as the mean +/−SD of 6 mice in each group.] It is clear that most immune cells and cancer cells can express more than one TNF receptor (even more than one death receptor) and ligand superfamily member. […] Moreover, the expression of these ligands and receptors may differ at the level of individual cell types within tissues and the expression level on the same cell type may also differ.
The full length TNF-gamma and extracellular domain of DR3 was cloned into pcDNA3 expression vector (Invitrogen, Carlsbad, Calif.) and transfected to MCA 38 cells, respectively. […] Mice then were randomized and tumors were measured twice weekly. The tumor size was assessed by measuring perpendicular diameters with a caliper and calculated by multiplying the measurements of diameters in two dimensions. […]

B1: BCMA-Fc (Fc fusion, human, UniProt Q02223 1-54, looked up)
chain: MLQMAGQCSQNEYFDSLLHACIPCQLRCSSNTPPLTCQRYCNASVTNSVKGTNA
notes: Control surface of the BIAcore analysis; not shown: Fc part of the fusion; not described for this receptor
In the case of B1, the binding result in assay [1] was “no binding (tested: 3-370 nM)”.
B2: the binding result is “no binding” in assay [2], “no binding” in assay [3] and “binds” with non-tagged form of TR6.

B3: TACI-Fc (extracellular domain of human TACI, aa 1-159, fused to the Fc domain of human IgG1) (Fc fusion, UniProt O14836 1-159, looked up)
chain: MSGLGRSRRGGRSRVDQEERFPQGLWTGVAMRSCPEEQYWDPLLGTCMSCKTICNHQSQRTCAAFCRSLSCRKEQGKFYDHLLRDCISCASICGQHPKQCAYFCENKLRSPVNLPPELRRQRSGEVENNSDNSGRYQGLEHRGSEASPALPGLKLSADQ
notes: range 1-159; also called TAC1; not shown: Fc domain of human IgG1, fused in-frame to the C-terminus of the receptor part
For B3, the binding result in assay [4] and in assay [5] was “no binding” each time.

B4: soluble DR3: extracellular domain of DR3 locally produced by transfected MCA 38 cells (protein, UniProt Q93038 25-199, looked up)
extracellular domain: QGGTRSPRCDCAGDFHKKIGLFCCRGCPAGHYLKAPCTEPCGNSTCLVCPQDTFLAWENHHNSECARCQACDEQASQVALENCSAVADTRCGCKPGWFVECQVSQCVSSSPFYCQPCLDCGALHRHTRLLCSRRDTDCGTCLPGFYEHGDGCVSCPTSTLGSCPERCAAVCGWRQ
modifications: extracellular domain
notes: extracellular domain of DR3 locally produced by transfected MCA 38 cells
Regarding B4, the tumor growth result in assay [6] was “promotes tumor growth”.
